From the RNAGym collection of RNA variant scans (doi:10.1093/molbev/msab373)

B1: Azoarcus group I ribozyme (parent)
chain: GUGCCUUGCGCCGGGAAACCACGCAAGGGAUGGUGUCAAAUUCGGCGAAACCUAAGCGCCCGCCCGGGCGUAUGGCAACGCCGAGCCAAGCUUCGGCGCCUGCGCCGAUGAAGGUGUAGAGACUAGACGGCACCCACCUAAGGCAAACGCUAUGGUGAAGGCAUAGUCCAGGGAGUGGCGAAAGUCACACAAACCGG

Variants of: B1
Assay: reverse-splicing fitness (ratio to wild type); higher = more active; in vitro selection; Mg2+ level not given
Summary of the method: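 An in vitro group I ribozyme library with randomized positions was T7-transcribed and gel-purified. In triplicate, 10 pmol RNA in EPPS pH 7.5 was reacted with 50 pmoles of a 30-nt RNA substrate for 1 h at 37 °C across several added MgCl2 levels (1–48 mM), then stopped with EDTA. Products were reverse transcribed from a substrate-complementary primer, PCR-amplified and sequenced (HiSeq 4000). Fitness is a variant's read proportion after selection over that before, normalised to wild type.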

Variant	reverse-splicing fitness
GUGCCUUGCGCCGGGAAACCACGCAAGGGAUGGUGUCAAAUUCGGCGAAACCUAAGCGCCCGCCCGGGCGUAUGGCAACGCAGAGCCAAGCUUCGGCGCCUGCGCCGAUGGAGGUGUAGCGACUAGACGGCACCCACCUAAGGCCAACGGUAUGGUGAAGGCAUAGUCAAGGGAGAGGCGAAAGUCACACAAACCGG	0.00906
GUGCCUUGCGCCGGGAAACCACGCAAGGGAUGGUGUCAAAUUCGGCGAAACCUAAGCGCCCGCCCGGGCGUAUGGCAACGCAGAGCCAAGCUUCGGCGCCUGCGCCGAUGGAGGUGUAGCGACUAGACGGCACCCACCUAAGGCCAACGGUAUGGUGAAGGCAUAGUCAAGGGAGGGGCGAAAGUCACACAAACCGG	0.00545
GUGCCUUGCGCCGGGAAACCACGCAAGGGAUGGUGUCAAAUUCGGCGAAACCUAAGCGCCCGCCCGGGCGUAUGGCAACGCAGAGCCAAGCUUCGGCGCCUGCGCCGAUGGAGGUGUAGCGACUAGACGGCACCCACCUAAGGCCAACGGUAUGGUGAAGGCAUAGUCAAGGGAGCGGCGAAAGUCACACAAACCGG	0.0108
GUGCCUUGCGCCGGGAAACCACGCAAGGGAUGGUGUCAAAUUCGGCGAAACCUAAGCGCCCGCCCGGGCGUAUGGCAACGCAGAGCCAAGCUUCGGCGCCUGCGCCGAUGGAGGUGUAGCGACUAGACGGCACCCACCUAAGGCCAACGGUAUGGUGAAGGCAUAGUCCAGGGAGUGGCGAAAGUCACACAAACCGG	0.00968
GUGCCUUGCGCCGGGAAACCACGCAAGGGAUGGUGUCAAAUUCGGCGAAACCUAAGCGCCCGCCCGGGCGUAUGGCAACGCAGAGCCAAGCUUCGGCGCCUGCGCCGAUGGAGGUGUAGCGACUAGACGGCACCCACCUAAGGCCAACGAUAUGGUGAAGGCAUAGUCGAGGGAGGGGCGAAAGUCACACAAACCGG	0.00763
GUGCCUUGCGCCGGGAAACCACGCAAGGGAUGGUGUCAAAUUCGGCGAAACCUAAGCGCCCGCCCGGGCGUAUGGCAACGCAGAGCCAAGCUUCGGCGCCUGCGCCGAUGGAGGUGUAGCGACUAGACGGCACCCACCUAAGGCCAACGAUAUGGUGAAGGCAUAGUCGAGGGAGCGGCGAAAGUCACACAAACCGG	0.025
GUGCCUUGCGCCGGGAAACCACGCAAGGGAUGGUGUCAAAUUCGGCGAAACCUAAGCGCCCGCCCGGGCGUAUGGCAACGCAGAGCCAAGCUUCGGCGCCUGCGCCGAUGGAGGUGUAGCGACUAGACGGCACCCACCUAAGGCCAACGAUAUGGUGAAGGCAUAGUCGAGGGAGAGGCGAAAGUCACACAAACCGG	0.0288
GUGCCUUGCGCCGGGAAACCACGCAAGGGAUGGUGUCAAAUUCGGCGAAACCUAAGCGCCCGCCCGGGCGUAUGGCAACGCAGAGCCAAGCUUCGGCGCCUGCGCCGAUGGAGGUGUAGCGACUAGACGGCACCCACCUAAGGCCAACGGUAUGGUGAAGGCAUAGUCUAGGGAGAGGCGAAAGUCACACAAACCGG	0.00566
GUGCCUUGCGCCGGGAAACCACGCAAGGGAUGGUGUCAAAUUCGGCGAAACCUAAGCGCCCGCCCGGGCGUAUGGCAACGCAGAGCCAAGCUUCGGCGCCUGCGCCGAUGGAGGUGUAGCGACUAGACGGCACCCACCUAAGGCCAACGGUAUGGUGAAGGCAUAGUCUAGGGAGGGGCGAAAGUCACACAAACCGG	0.00527
GUGCCUUGCGCCGGGAAACCACGCAAGGGAUGGUGUCAAAUUCGGCGAAACCUAAGCGCCCGCCCGGGCGUAUGGCAACGCAGAGCCAAGCUUCGGCGCCUGCGCCGAUGGAGGUGUAGCGACUAGACGGCACCCACCUAAGGCCAACGGUAUGGUGAAGGCAUAGUCUAGGGAGCGGCGAAAGUCACACAAACCGG	0.00986
GUGCCUUGCGCCGGGAAACCACGCAAGGGAUGGUGUCAAAUUCGGCGAAACCUAAGCGCCCGCCCGGGCGUAUGGCAACGCAGAGCCAAGCUUCGGCGCCUGCGCCGAUGGAGGUGUAGCGACUAGACGGCACCCACCUAAGGCCAACGAUAUGGUGAAGGCAUAGUCUAGGGAGGGGCGAAAGUCACACAAACCGG	0.00607
GUGCCUUGCGCCGGGAAACCACGCAAGGGAUGGUGUCAAAUUCGGCGAAACCUAAGCGCCCGCCCGGGCGUAUGGCAACGCAGAGCCAAGCUUCGGCGCCUGCGCCGAUGGAGGUGUAGCGACUAGACGGCACCCACCUAAGGCCAACGAUAUGGUGAAGGCAUAGUCUAGGGAGCGGCGAAAGUCACACAAACCGG	0.011
GUGCCUUGCGCCGGGAAACCACGCAAGGGAUGGUGUCAAAUUCGGCGAAACCUAAGCGCCCGCCCGGGCGUAUGGCAACGCAGAGCCAAGCUUCGGCGCCUGCGCCGAUGGAGGUGUAGCGACUAGACGGCACCCACCUAAGGCCAACGAUAUGGUGAAGGCAUAGUCUAGGGAGAGGCGAAAGUCACACAAACCGG	0.0138
GUGCCUUGCGCCGGGAAACCACGCAAGGGAUGGUGUCAAAUUCGGCGAAACCUAAGCGCCCGCCCGGGCGUAUGGCAACGCAGAGCCAAGCUUCGGCGCCUGCGCCGAUGGAGGUGUAGCGACUAGACGGCACCCACCUAAGGCCAACGGUAUGGUGAAGGCAUAGUCCAGGGAGAGGCGAAAGUCACACAAACCGG	0.00522
GUGCCUUGCGCCGGGAAACCACGCAAGGGAUGGUGUCAAAUUCGGCGAAACCUAAGCGCCCGCCCGGGCGUAUGGCAACGCAGAGCCAAGCUUCGGCGCCUGCGCCGAUGGAGGUGUAGCGACUAGACGGCACCCACCUAAGGCCAACGGUAUGGUGAAGGCAUAGUCCAGGGAGGGGCGAAAGUCACACAAACCGG	0.00265
